Test: label from the status in PepcDB records

Row | Sequence | protein production
1 | MSFRVSASSSVKPEKDIRIGLLGASGYTGAEIVRLLANHPHFQVTLMTADRKAGQSMESVFPHLRAQKLPTLVSVKDADFSTVDAVFCCLPHGTTQEIIKELPTALKIVDLSADFRLRNIAEYEEWYGQPHKAVELQKEVVYGLTEILREDIKKARLVANPGCYPTTIQLPLVPLLKANLIKHENIIIDAKSGVSGAGRGAKEANLYSEIAEGISSYGVTRHRHVPEIEQGLSDVAQSKVTVSFTPHLMPMIRGMQSTIYVEMAPGVRTEDLHQQLKTSYEDEEFVKVLDEGVVPRTHNVRGSNYCHMSVFPDRIPGRAIIISVIDNLVKGASGQALQNLNIMLGYPETTGLLHQPLFP | failed
2 | MSFSDHFSAVAASYAKARPRYPQRWFRYLARIVPDRQRVWDCATGNGQAAIALAEYFSEVIGSDASAAQVRQARSHPRVQYLVFPAEATPLAPASLDLITVAQAAHWFDLPQFYIEAQRLLRPGGVIALWGYGLGSLNPAIDHVFNHFYRDWLDPYWPPERQWVEQAYEGLSFPFEPLPTPTFSMQCDWTLFDLLAYLRTWSGVQQFQRQRGFDPVWAIAPELQRVWGDPQRYRRITWPLFAKVGRWQPLEHHHHHH | not failed
3 | MSFSFLFILTAGMVAAFNPCGIALLPSYISYLIGGETKDHSFRYAIFKGLGLGGAMTTGFLTIFVLAGLLIGGLGSALTGIFPILSLVMGILIALLGLGMLFGKHLPIKIGSFQVKPGKWSIYFYGIAYAVTSLGCTLPAFMLVVSASLNDNSVTAVIIKFIIYSLGMGIVVTAITMVSLISRQLVQKFLHNYMGSIQKIAAVVIFLSGLYMAYYWYFGSGGICTF | failed
4 | MSFVAYEELIKEGDTAILSLGHGAMVAVRVQRGAQTQTRHGVLRHSVDLIGRPFGSKVTCGRGGWVYVLHPTPELWTLNLPHRTQILYSTDIALITMMLELRPGSVVCESGTGSGSVSHAIIRTIAPTGHLHTVEFHQQRAEKAREEFQEHRVGRWVTVRTQDVCRSGFGVSHVADAVFLDIPSPWEAVGHAWDALKVEGGRFCSFSPCIEQVQRTCQALAARGFSELSTLEVLPQVYNVRTVSLPPPDLGTGTDGPAGSDTSPFRSGTPMKEAVGHTGYLTFATKTPG | not failed
5 | MSFWRPRLGLLDASVLSFAVLPTDLDFNRHMTNARYLSLMDLGRLDLILRSGMWRLVLRQSLQPVIGGALVRFRHALRPFQPFRLTTRVLAWDARWLFIEHRVETLDGKPACTAVVRAAFVASTGMLPTADLLTRLGYGGAAPDVPAWIAPWLQADLACQPASPPLENPL | failed
6 | MSGDMEATGWGYTHISVDSFCHKWTISNFSFCMDGIMETITSPKFSLKASDKVEWGLKVHPNGIDEESKNYLSVYLALLHCQKSPVWAKYEFWIINSQGEKYQSRKSTKVVSFHKNKYRGFKKFILRDFLFSNPHRLLPEDQLTLCCQVSIMGAFFKTPGQSITPAVPDPRHMMADDLGELWENSLCTDCCLLVAGQEFRAHKAILAARSPVFRAMFEHQMEERLTNRVDINGLDPKVFKEMMGFIYTGKAPHLHIHSMACDLLAAADRYGLEGLKVMCEDALCRNLSVENAAHTLILADLHNIEQLKTQALDFIALHASEVSENSEWKSMMESHPHLVAETFHSLASAQCFLEPSIKHLK | failed
7 | MSGFHYPGVPVTALLYSLWPLFALIVGGYALRRWDFPGEAFWPAAERLNYFILFPALLFSNLATAPLDDPGLARQALAVLLGLGVAWLALLLCKRWRGWDAGRFGAIAQGVLRFNTYLGLAAVGSLYGKPGLTLAALMLALMVPTVNVMSVWALTAERGISLRALLLPILKNPLILACLAGALVNLAGVGLPGGSDRLLNLLAVASLPLGLLCVGAALKPQELGGEVAALGWNCAARLLAMPLLAFAIARGLGLPSMESAVLVLFFALPTAPTAYVLTRQLGGDGHLMAGIITLQTLLSGATLVGVLLVLQGSP | failed
8 | MSGFSPELIDYLEGKISFEEFERRREERKTREKKSLQEKGKLSAEENPDDSEVPSSSGINSTKSQDKDVNEGETSDGVRKSVHKVFASMLGENEDDEEEEEEEEEEEEEEETPEQPTAGDVFVLEMVLNRETKKMMKEKRPRSKLPRALRGLMGEANIRFARGEREEAILMCMEIIRQAPLAYEPFSTLAMIYEDQGDMEKSLQFELIAAHLNPSDTEEWVRLAEMSLEQDNIKQAIFCYTKALKYEPTNVRYLWERSSLYEQMGDHKMAMDGYRRILNLLSPSDGERFMQLARDMAKSYYEANDVTSAINIIDEAFSKHQGLVSMEDVNIAAELYISNKQYDKALEIITDFSGIVLEKKTSEEGTSEENKAPENVTCTIPDGVPIDITVKLMVCLVHLNILEPLNPLLTTLVEQNPEDMGDLYLDVAEAFLDVGEYNSALPLLSALVCSERYNLAVVWLRHAECLKALGYMERAAESYGKVVDLAPLHLDARISLSTLQQQLGQPEKALEALEPMYDPDTLAQDANAAQQELKLLLHRSTLLFSQGKMYGYVDTLLTMLAMLLKVAMNRAQVCLISSSKSGERHLYLIKVSRDKISDSNDQESANCDAKAIFAVLTSVLTKDDWWNLLLKAIYSLCDLSRFQEAELLVDSSLEYYSFYDDRQKRKELEYFGLSAAILDKNFRKAYNYIRIMVMENVNKPQLWNIFNQVTMHSQDVRHHRFCLRLMLKNPENHALCVLNGHNAFVSGSFKHALGQYVQAFRTHPDEPLYSFCIGLTFIHMASQKYVLRRHALIVQGFSFLNRYLSLRGPCQESFYNLGRGLHQLGLIHLAIHYYQKALELPPLVVEGIELDQLDLRRDIAYNLSLIYQSSGNTGMAQTLLYTYCSI | failed
9 | MSGGQQERHVLILNTVGGRRAIALEAAAYSLGRDESNAIVIDFETVSRQHAILLRVPVPGTTSYRYRLVDGNANGKPSTNGTFVNGKRISSHELQHGDVILFGRKAKASYLLLSMADTEFSQYLQSIAFQSIKSDLRGAKETLVGMELSGELRRTPNRELVAAGATQLHPELEPAKDTLSSESDSEPKGNNKETLHEKESQGSKTNLVALGAIALVVVAIIAGAVWRAGFSANPPQGSPPATPTRN | failed
10 | MSGGRAQKPRPAPLRLAKPRPSSVGPAPRGSPGARRPAMSARHAPLLAGRVRSRAPRRFPDRGGGRRRQSSPVRAMSSPAVARASPGGNREASGGPRSRNGPWEVGGGGERLERAGAESGRWELLLRRGELLALGGHLKGALEAFAAALRRGAPARPERLGSLVDCLVFSYRLRHGLRWSAAPAAGAAGLLSCLSCRGFLSEPVTVPCGHSYCRRCLRRELRARCRLCRDRLPPAAAASEGTPRPPPLAAAIADFRTSVVLNHLAEKWFPGQRERARAAGRLGELLHEGRYREALAAACDALRAEPSDLTLKIYRAESYAGLQEFKAALEDLNAVLFQLPNWPEVYFRKGKVLQDAGFLGDALQLFLQCLALDEDFAPAKLQVEKILCDLLSPENVREGLKESSWSSLPCIKSKPLGFPSVMEQPHSPAELGLKQPEERVEDAPEPVKGSLSRAQSAQAISAAAVPAREDGLKRVCSEPLLSAQGKGVLLKRKLSLLEQDVLINEDGRSKLKKQSESPSEDCMFSIAYGDIPEELIDVSDFECSLCMRLFFEPVTTPCGHSFCKNCLERCLDHAPYCPLCKESLKEYLADRRYCVTQLLEELIVKYLPDELSERKKIYDEETAELSHLTKNVPIFVCTMAYPTVPCPLHVFEPRYRLMIRRSIQTGTKQFGMCVSDTQNSFADYGCMLQIRNVHFLPDGRSVVDTVGGKRFRVLKRGMKDGYCTADIEYLEDVKIENGDEIRSLRELHDSVYSQACSWFQNLRDRFRSQILQHFGSMPEREENLQATPNGPAWCWWLLAVLPVDPRYQLSVLSMKSLEERLTKIQHILTYFSRDQSK | failed
11 | MSGIEAKNLWHRLNNLALVRFLLLVAAGWAIVQLLAYFETVIIIFTFAAILAFLLSYPVQWLRRFLPHSVAVVVVFLISIVILGGLLITVGVALLSQGQQLIDSISAFLTSLLPFLERIERLLSNRNLQIDLSVIQEQLRTQAVSTLVTSLAIVQQFLTNFVTFILIAVVAFFMLLDGEKLWNFILKIVPQKRRIRFTNIMRRSFLGFFRGQLLLCLFLTSSTFIIFLLLQVPFALILSVIVGILDIIPGIGATLGVGTITLIVLSQDVWLALKVLAACVVLQQIQDNLISPRIMQGSLNLNPVVVFFALLVGARVAGLLGVFISIPITGVIVSLFEIDEMKSEV | failed
12 | MSGILALGAYVPERVMTNADFEAYLDTSDEWIVTRTGIKERRVAAEDEYTSDLAFKAVEDLLRRHPGALEGVDAVIVATNTPDALFPDTAALVQARFGLKAFAYDLLAGCPGWIYALAQAHALVEAGLAQKVLAVGAEALSKIIDWNDRATAVLFGDGGGAAVVGKVREGYGFRSFVLGADGTGAKELYHACVAPRLPDGTSMKNRLYMNGREVFKFAVRVMNTATLEAIEKAGLTPEDIRLFVPHQANLRIIDAARERLGLPWERVAVNVDRYGNTSTASIPLALKEALDAGRIREGDHVLLVSFGAGLTWAAAVLTWGGA | not failed
13 | MSGLDPARSILQGSAEGPVIATGEALSFWGGVDPATGCVIDVHHPLHGVPLTGSILMMPSSRGSCTGSGVLLDLVLTGRGPAALVFSEPEDVLTLGALIASEMFGKPLPVL | failed
14 | MSGMRVYLGADHAGYELKQRIIEHLKQTGHEPIDCGALRYDADDDYPAFCIAAATRTVADPGSLGIVLGGSGNGEQIAANKVPGARCALAWSVQTAALAREHNNAQLIGIGGRMHTVAEALAIVDAFVTTPWSKAQRHQRRIDILAEYERTHEAPPVPGAPA | not failed
15 | MSGMVDLKEFLAELGKTQKELKNVIEQAKDIGLELKTNSKMTPEQAGKLYKYIVDGIKEQIQANQPAKNPEQDNKDDLNTAVASKSLNKKVSKTPKKEETKSQPKPKKTKEKKKEAPTPIAKKKGGIEIVNTFENQTPPTENTPKVVSHSQIEKAKQKLQEIQKSREALNKLTQSNANNASNANNAKKEISEVKKQEQEIKRHENIKRRTGFRVIKRNDEVENESENSVTESKKPTQSAAAIFEDIKKEWQEKDKQEAKKAKKPSKPKATPTAKNNKSHKIDFSDARDFKGNDIYDDETDEILLFDLHEQDNFNKEEEEKEIRQNINDRVRVQRKNPWMNESGIKRQSKKKRAFRNDNSQKVIQSTTAIPEEVRVYEFAQKANLNLADVIKTLFNLGLMVTKNDFLDKDSIEILAEEFHLEISVQNTLEEFEVEEVLEGVKKERPPVVTIMGHVDHGKTSLLDKIRDKRVAHTEAGGITQHIGAYMVEKNDKWVSFIDTPGHEAFSQMRNRGAQVTDIAVIVIAADDGVKQQTIEALEHAKAANVPVIFAMNKMDKPNVNPDKLKAECAELGYNPVDWGGEHEFIPVSAKTGDGIDNLLETILIQAGIMELKAIEEGSARAVVLEGSVEKGRGAVATVIVQSGTLSVGDSFFAETAFGKVRTMTDDQGKSIQNLKPSMVALITGLSEVPPAGSVLIGVENDSIARLQAQKRATYLRQKALSKSTKVSFDELSEMVANKELKNIPVVIKADTQGSLEAIKNSLLELNNEEVAIQVIHSGVGGITENDLSLVSSSEHAVILGFNIRPTGNVKNKAKEYNVSIKTYTVIYALIEEMRSLLLGLMSPIIEEEHTGQAEVRETFNIPKVGTIAGCVVSDGVIARGIKARLIRDGVVIHTGEILSLKRFKDDVKEVSKGYECGIMLDNYNEIKVGDVFETYKEIHKKRTL | failed
16 | MSGPTWLPPKQPEPSRVPQGRALPRGTLGPPTAHGATLQPHPRVNFCPLPPEQCYQPPGVPEDRGPTWVGSHGAAQRLQGLPPDRGVIHPGSLDAEIDSLTSMLADLDGSRSHAPRRPDRQAFEAPPPHAYRGGSLKPSGGAVPAPMLPASPYGGPTPASYATASTPAGPAFPVQVKVAQPVRGCGLPRRGASQASGPLPGPHFPLTGRGEVWGAGYRSHREPGPGVKEGAAGVHNPAGGGRRGGHEPQGPLSQPPEEELERLTKKLVHDMNHPPSGEYFGRCGGCGDDVVGDGAGVVALDRVFHTGCFVCSTCRAQLRGQHFYAVERRAYCESCYVATLEKCSTCSEPILDRILRAMGKAYHPGCFTCVVCHRGLDGIPFTVDATSQIHCIEDFHRKFAPRCSVCGGAIMPEPGQEETVRIVALDRSFHIGCYKCEECGLLLSSEGECQGCYPLDGHILCKACSAWRIQELSATVTTDC | failed
